Molecular target: IL12 receptor on pre-activated mouse CD8+ T cells (mouse) (UniProt Q60837)
Assay: cell-based or functional assay

B1: Mouse IL12 (unmodified) (ligand)
chain 1: RVIPVSGPARCLSQSRNLLKTTDDMVKTAREKLKHYSCTAEDIDHEDITRDQTSTLKTCLPLELHKNESCLATRETSSTTRGSCLPPQKTSLMMTLCLGSIYEDLKMYQTEFQAINAALQNHNHQQIILDKGMLVAIDELMQSLNHNGETLRQKPPVGEADPYRVKMKLCILLHAFSTRVVTINRVMGYLSSA
chain 2: MWELEKDVYVVEVDWTPDAPGETVNLTCDTPEEDDITWTSDQRHGVIGSGKTLTITVKEFLDAGQYTCHKGGETLSHSHLLLHKKENGIWSTEILKNFKNKTFLKCEAPNYSGRFTCSWLVQRNMDLKFNIKSSSSSPDSRAVTCGMASLSAEKVTLDQRDYEKYSVSCQEDVTCPTAEETLPIELALEARQQNKYENYSTSFFIRDIIKPDPPKNLQMKPLKNSQVEVSWEYPDSWSTPHSYFSLKFFVRIQRKKEKMKETEEGCNQKGAFLVEKTSTEVQCKGGNVCVQAQDRYYNSSCSKWACVPCRVRS
EC50 of STAT4 phosphorylation in pre-activated mouse CD8+ T cells (flow cytometry): 16.3 pM

B2: IL12Rβ1-VP-IL12 (protein, part only; not given: IL12Rβ1 mask domains and linker, part only)
chain, part: VPLSLYSRVIPVSGPARCLSQSRNLLKTTDDMVKTAREKLKHYSCTAEDIDHEDITRDQTSTLKTCLPLELHKNESCLATRETSSTTRGSCLPPQKTSLMMTLCLGSIYEDLKMYQTEFQAINAALQNHNHQQIILDKGMLVAIDELMQSLNHNGETLRQKPPVGEADPYRVKMKLCILLHAFSTRVVTINRVMGYLSSA
chain: MWELEKDVYVVEVDWTPDAPGETVNLTCDTPEEDDITWTSDQRHGVIGSGKTLTITVKEFLDAGQYTCHKGGETLSHSHLLLHKKENGIWSTEILKNFKNKTFLKCEAPNYSGRFTCSWLVQRNMDLKFNIKSSSSSPDSRAVTCGMASLSAEKVTLDQRDYEKYSVSCQEDVTCPTAEETLPIELALEARQQNKYENYSTSFFIRDIIKPDPPKNLQMKPLKNSQVEVSWEYPDSWSTPHSYFSLKFFVRIQRKKEKMKETEEGCNQKGAFLVEKTSTEVQCKGGNVCVQAQDRYYNSSCSKWACVPCRVRS
EC50 of STAT4 phosphorylation in pre-activated mouse CD8+ T cells, fold against unmodified IL12: 80 fold
fold decrease in STAT4 phosphorylation in pre-activated mouse CD8+ T cells, noncleaved construct against IL12 (FIG. 3C): 80 fold

B3: IL12Rβ1-LS-IL12 (protein)
chain 1: QLGASGPGDGCCVEKTSFPEGASGSPLGPRNLSCYRVSKTDYECSWQYDGPEDNVSHVLWCCFVPPNHTHTGQERCRYFSSGPDRTVQFWEQDGIPVLSKVNFWVESRLGNRTMKSQKISQYLYNWTKTTPPLGHIKVSQSHRQLRMDWNVSEEAGAEVQFRRRMPTTNWTLGDCGPQVNSGSGVLGDIRGSMSESCLCPSENMAQEIQIRRRRRLSSGAPGGPWSDWSMPVCVPPEVLPQAGLLSGRSDNHGGGSGGGSRVIPVSGPARCLSQSRNLLKTTDDMVKTAREKLKHYSCTAEDIDHEDITRDQTSTLKTCLPLELHKNESCLATRETSSTTRGSCLPPQKTSLMMTLCLGSIYEDLKMYQTEFQAINAALQNHNHQQIILDKGMLVAIDELMQSLNHNGETLRQKPPVGEADPYRVKMKLCILLHAFSTRVVTINRVMGYLSSAHHHHHH
chain 2: MWELEKDVYVVEVDWTPDAPGETVNLTCDTPEEDDITWTSDQRHGVIGSGKTLTITVKEFLDAGQYTCHKGGETLSHSHLLLHKKENGIWSTEILKNFKNKTFLKCEAPNYSGRFTCSWLVQRNMDLKFNIKSSSSSPDSRAVTCGMASLSAEKVTLDQRDYEKYSVSCQEDVTCPTAEETLPIELALEARQQNKYENYSTSFFIRDIIKPDPPKNLQMKPLKNSQVEVSWEYPDSWSTPHSYFSLKFFVRIQRKKEKMKETEEGCNQKGAFLVEKTSTEVQCKGGNVCVQAQDRYYNSSCSKWACVPCRVRS
EC50 of STAT4 phosphorylation in pre-activated mouse CD8+ T cells, fold against unmodified IL12: 80 fold
fold decrease in STAT4 phosphorylation in pre-activated mouse CD8+ T cells, noncleaved construct against IL12 (FIG. 3C): 80 fold

Source: patent US20220281936A1
